From patent publication US20200325214A1 (NUMAB THERAPEUTICS, published 2020)

Columns and labels:
mouse serum albumin [1] = target: T1, mouse serum albumin (mouse, UniProt P07724 25-608); assay: SPR, SA coupled to the chip, scFv as analyte
T1 construct: Amine-coupled to the SPR chip; also called mouse SA; rodent SA
Experimental: (§1) Affinity of the humanized scFvs to serum albumin (SA) of the different species was determined by SPR measurements using a MASS-1 device (Sierra Sensors). SA was directly coupled to a high capacity amine sensor chip (Sierra Sensors) using amine coupling chemistry. […] The assay was run twice at different pH values: once in a 1×PBS-Tween buffer at pH 5.5 and another time in a 1×PBS-Tween buffer at pH 7.4.

rat serum albumin [2] = target: T2, rat serum albumin (rat, UniProt P02770 25-608); assay: SPR, SA coupled to the chip, scFv as analyte
T2 construct: Amine-coupled to the SPR chip; also called rat SA; rodent SA
Experimental: as §1

human serum albumin [3] = target: T3, human serum albumin (human, UniProt P02768 25-609); assay: SPR (MASS-1), SA amine-coupled, scFv analyte, pH 7.4
T3 construct: Amine-coupled to the SPR chip; also called HSA; human SA
Experimental: as §1

cynomolgus serum albumin [4] = target: T4, cynomolgus serum albumin (cynomolgus, UniProt A2V9Z4 25-608); assay: as above
T4 construct: Amine-coupled to the SPR chip; also called cynomolgus SA
Experimental: as §1

cynomolgus serum albumin [5] = target: T4, cynomolgus serum albumin; assay: SPR; upper end tied to cynomolgus SA at pH 5.5 by the KD values of Table 3
Experimental: as §1

[6] = target: T5, marmoset (purified) serum albumin (marmoset); assay: SPR (MASS-1), SA amine-coupled, scFv analyte, pH 5.5
T5 construct: Amine-coupled to the SPR chip; also called marmoset SA
Experimental: as §1

human serum albumin [7] = target: T3, human serum albumin; assay: as above
Experimental: as §1

cynomolgus serum albumin [8] = target: T4, cynomolgus serum albumin; assay: as above
Experimental: as §1

human serum albumin [9] = target: T3, human serum albumin; assay: SPR; lower end tied to human SA at pH 5.5 by the KD values of Table 3
Experimental: as §1

mouse serum albumin [10] = target: T1, mouse serum albumin; assay: SPR (MASS-1), SA amine-coupled, scFv analyte, pH 5.5
Experimental: as §1

rat serum albumin [11] = target: T2, rat serum albumin; assay: as above
Experimental: as §1

mouse serum albumin [12] = target: T1, mouse serum albumin; assay: SPR (MASS-1), SA amine-coupled, scFv analyte, pH 7.4
Experimental: as §1

rat serum albumin [13] = target: T2, rat serum albumin; assay: as above
Experimental: as §1

human serum albumin [14] = target: T3, human serum albumin; assay: SPR; species not given, human SA taken from Table 3

Kd (human serum albumin [3]) [nM]	koff (human serum albumin [3]) [s⁻¹]	kon (human serum albumin [3]) [M⁻¹ s⁻¹]	Kd (cynomolgus serum albumin [4]) [nM]	koff (cynomolgus serum albumin [4]) [s⁻¹]	kon (cynomolgus serum albumin [4]) [M⁻¹ s⁻¹]	Kd [6] [nM]	koff [6] [s⁻¹]	kon [6] [M⁻¹ s⁻¹]	Kd (human serum albumin [7]) [nM]	koff (human serum albumin [7]) [s⁻¹]	kon (human serum albumin [7]) [M⁻¹ s⁻¹]	Kd (cynomolgus serum albumin [8]) [nM]	koff (cynomolgus serum albumin [8]) [s⁻¹]	kon (cynomolgus serum albumin [8]) [M⁻¹ s⁻¹]	Binder	other results
1.07	0.000411	384000	0.711	0.000302	424000	0.674	0.0026	3.86e+06	0.684	0.000308	450000	0.387	0.000231	598000	19-01-H04-sc02 (scFv, V domains shown, also called clone 19-01-H04 STR graft; humanized scFv) VH: EVQLVESGGGLVQPGGSLRLSCAASGFSLSSNAMGWVRQAPGKGLEYIGIISVGGFTYYASWAKGRFTISRDNSKNTVYLQMNSLRAEDTATYFCARDRHGGDSSGAFYLWGQGTLVTVSS VL: DIQMTQSPSSLSASVGDRVTITCQSSESVYSNNQLSWYQQKPGQPPKLLIYDASDLASGVPSRFSGSGSGTDFTLTISSLQPEDFATYYCAGGFSSSSDTAFGGGTKLTVLG	binding result (mouse serum albumin [1]): no binding; binding result (rat serum albumin [2]): no binding; fold improvement of affinity of the STR graft over the CDR graft 19-01-H04-sc01 (cynomolgus serum albumin [5]): 20 to 300 fold; fold improvement of affinity of the STR graft over the CDR graft 19-01-H04-sc01 (human serum albumin [9]): 20 to 300 fold
0.6	0.000194	323000	1.3	0.000433	334000	3.77	0.00128	338000	0.373	0.000115	307000	0.75	0.000253	338000	23-13-A01-sc02 (scFv, V domains shown, also called clone 23-13-A01 STR graft; humanized scFv) VH: EVQLVESGGGLVQPGGSLRLSCAASGFSFSSSYWICWVRQAPGKGLEWVGCVFTGDGTTYYASWAKGRFTISRDNSKNTVYLQMNSLRAEDTATYFCARPVSVYYYGMDLWGQGTLVTVSS VL: DVVMTQSPSSLSASVGDRVTITCQASQIISSRSAWYQQKPGQPPKLLIYQASKLASGVPSRFSGSGSGTDFTLTISSLQPEDFATYYCQCTYIDSNFGAFGGGTKLTVLG	Kd (mouse serum albumin [10]): 4.86 nM; koff (mouse serum albumin [10]): 0.000933 s⁻¹; kon (mouse serum albumin [10]): 192000 M⁻¹ s⁻¹; Kd (rat serum albumin [11]): 18.7 nM; koff (rat serum albumin [11]): 0.00437 s⁻¹; kon (rat serum albumin [11]): 234000 M⁻¹ s⁻¹; Kd (mouse serum albumin [12]): 32.2 nM; koff (mouse serum albumin [12]): 0.00469 s⁻¹; kon (mouse serum albumin [12]): 146000 M⁻¹ s⁻¹; Kd (rat serum albumin [13]): 231 nM; koff (rat serum albumin [13]): 0.0245 s⁻¹; kon (rat serum albumin [13]): 106000 M⁻¹ s⁻¹; fold improvement of affinity of the STR graft over the CDR graft 23-13-A01-sc01 (human serum albumin [14]): ~3 fold
